Assay results from the supplement of paper PMC9112550, “Optimization of the antimicrobial peptide Bac7 by deep mutational scanning” (BMC Biology, 2022).

Test system: Escherichia coli TOP10
Test: shrunken log2 fold change of peptide-encoding DNA abundance (4.5 h post-induction vs induction); higher = less antimicrobial activity (less host growth inhibition)
Details: time post-induction: 4.5 h; library: site-saturation at positions 5, 18, 19, 20
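Note: peptides expressed intracellularly from a pBAD plasmid library in pooled LB shake-flask culture, induced with 0.3% L-arabinose, DNA abundance read by NGS, three biological replicates, DESeq2 with apeglm shrinkage.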

Row | Sequence | shrunken log2 fold change
1 | RRIRYRPPRLPRPRPRPFGYPRP | -1.39
2 | RRIRMRPPRLPRPRPRPDGLPRP | 0.143
3 | RRIRERPPRLPRPRPRPWLTPRP | -0.0528
4 | RRIRYRPPRLPRPRPRPEGDPRP | -0.00396
5 | RRIRMRPPRLPRPRPRPRAYPRP | 0.426
6 | RRIRPRPPRLPRPRPRPPNFPRP | 0.0501
7 | RRIRWRPPRLPRPRPRPMAIPRP | -0.198
8 | RRIRTRPPRLPRPRPRPYSKPRP | -0.565
9 | RRIRARPPRLPRPRPRPTKTPRP | 0.247
10 | RRIRPRPPRLPRPRPRPLVPPRP | 0.125
11 | RRIRYRPPRLPRPRPRPQNRPRP | -0.0755
12 | RRIRTRPPRLPRPRPRPWYVPRP | -0.275
13 | RRIRMRPPRLPRPRPRPNRIPRP | -0.18
14 | RRIRSRPPRLPRPRPRPMNEPRP | -0.457
15 | RRIRDRPPRLPRPRPRPNKIPRP | -0.457
16 | RRIRKRPPRLPRPRPRPGYWPRP | -0.00764
17 | RRIRMRPPRLPRPRPRPWSLPRP | -0.385
18 | RRIRQRPPRLPRPRPRPHPWPRP | 0.0242
19 | RRIRERPPRLPRPRPRPAACPRP | 0.0165
20 | RRIRARPPRLPRPRPRPAVSPRP | 0.431
21 | RRIRKRPPRLPRPRPRPNHFPRP | -2.08
22 | RRIRSRPPRLPRPRPRPCVIPRP | -0.172
23 | RRIRNRPPRLPRPRPRPMLTPRP | -0.296
24 | RRIRDRPPRLPRPRPRPNFQPRP | 0.151
25 | RRIRIRPPRLPRPRPRPCSRPRP | -0.139

Row | Sequence | shrunken log2 fold change
26 | RRIRRRPPRLPRPRPRPQHHPRP | -0.0809
27 | RRIRPRPPRLPRPRPRPPAMPRP | 0.447
28 | RRIRERPPRLPRPRPRPAQFPRP | 0.383
29 | RRIRYRPPRLPRPRPRPLSDPRP | -0.108
30 | RRIRVRPPRLPRPRPRPCCCPRP | 0.0615
31 | RRIRQRPPRLPRPRPRPLTEPRP | -0.22
32 | RRIRKRPPRLPRPRPRPVVRPRP | -0.0886
33 | RRIRERPPRLPRPRPRPTNHPRP | -0.472
34 | RRIRGRPPRLPRPRPRPEEVPRP | 1.53
35 | RRIRQRPPRLPRPRPRPWSMPRP | -0.0469
36 | RRIRFRPPRLPRPRPRPSKQPRP | -0.101
37 | RRIRTRPPRLPRPRPRPTFRPRP | -0.0105
38 | RRIRWRPPRLPRPRPRPTTAPRP | 0.432
39 | RRIRKRPPRLPRPRPRPTPPPRP | 1.25
40 | RRIRCRPPRLPRPRPRPYGAPRP | -0.569
41 | RRIRWRPPRLPRPRPRPILLPRP | -0.0849
42 | RRIRVRPPRLPRPRPRPISSPRP | -0.136
43 | RRIRHRPPRLPRPRPRPCCVPRP | -0.193
44 | RRIRGRPPRLPRPRPRPNCAPRP | 0.811
45 | RRIRARPPRLPRPRPRPEQLPRP | 1.47
46 | RRIRPRPPRLPRPRPRPCNGPRP | -0.202
47 | RRIRWRPPRLPRPRPRPTLYPRP | -0.0322
48 | RRIRKRPPRLPRPRPRPPQYPRP | 0.277
49 | RRIRTRPPRLPRPRPRPRKKPRP | 0.173
50 | RRIRIRPPRLPRPRPRPCIFPRP | -0.402

Row | Sequence | shrunken log2 fold change
51 | RRIRQRPPRLPRPRPRPQVMPRP | 0.095
52 | RRIRIRPPRLPRPRPRPMLVPRP | 0.0625
53 | RRIRDRPPRLPRPRPRPEQEPRP | -0.0197
54 | RRIRMRPPRLPRPRPRPSRWPRP | 1
55 | RRIRYRPPRLPRPRPRPMFYPRP | -1.04
56 | RRIRTRPPRLPRPRPRPVVGPRP | 0.626
57 | RRIRFRPPRLPRPRPRPWYVPRP | -0.757
58 | RRIRRRPPRLPRPRPRPRFLPRP | 0.15
59 | RRIRFRPPRLPRPRPRPTCGPRP | 0.00559
60 | RRIRVRPPRLPRPRPRPQTRPRP | 0.355
61 | RRIRGRPPRLPRPRPRPNQEPRP | 0.389
62 | RRIRMRPPRLPRPRPRPISKPRP | 0.316
63 | RRIRGRPPRLPRPRPRPAYTPRP | -0.166
64 | RRIRQRPPRLPRPRPRPGMYPRP | -0.35
65 | RRIRLRPPRLPRPRPRPCKQPRP | 0.0377
66 | RRIRQRPPRLPRPRPRPMELPRP | -0.109
67 | RRIRARPPRLPRPRPRPMQIPRP | 0.446
68 | RRIRQRPPRLPRPRPRPETMPRP | 0.192
69 | RRIRERPPRLPRPRPRPQQVPRP | -0.0841
70 | RRIRWRPPRLPRPRPRPKWYPRP | -0.235
71 | RRIRPRPPRLPRPRPRPWVWPRP | 0.267
72 | RRIRFRPPRLPRPRPRPFGFPRP | -0.436
73 | RRIRRRPPRLPRPRPRPWGPPRP | 0.0858
74 | RRIRSRPPRLPRPRPRPIKVPRP | -0.181
75 | RRIRVRPPRLPRPRPRPECYPRP | -0.035

Row | Sequence | shrunken log2 fold change
76 | RRIRCRPPRLPRPRPRPWCLPRP | -0.339
77 | RRIRIRPPRLPRPRPRPAVIPRP | 0.0759
78 | RRIRIRPPRLPRPRPRPTYKPRP | -1.09
79 | RRIRTRPPRLPRPRPRPTQPPRP | 0.176
80 | RRIRSRPPRLPRPRPRPEWLPRP | 0.625
81 | RRIRVRPPRLPRPRPRPNIEPRP | -0.616
82 | RRIRRRPPRLPRPRPRPRYWPRP | 0.088
83 | RRIRKRPPRLPRPRPRPPGDPRP | 0.905
84 | RRIRIRPPRLPRPRPRPCFKPRP | -1.04
85 | RRIRDRPPRLPRPRPRPCLYPRP | 0.0504
86 | RRIRVRPPRLPRPRPRPAGSPRP | 0.29
87 | RRIRHRPPRLPRPRPRPGLNPRP | -0.0123
88 | RRIRARPPRLPRPRPRPCPMPRP | -0.0338
89 | RRIRDRPPRLPRPRPRPGSMPRP | -0.403
90 | RRIRVRPPRLPRPRPRPLHKPRP | -0.192
91 | RRIRERPPRLPRPRPRPGLLPRP | -0.0986
92 | RRIRNRPPRLPRPRPRPVAVPRP | -0.0786
93 | RRIRSRPPRLPRPRPRPSGTPRP | -0.494
94 | RRIRWRPPRLPRPRPRPLKDPRP | -0.178
95 | RRIRWRPPRLPRPRPRPDQIPRP | 0.134
96 | RRIRCRPPRLPRPRPRPTWPPRP | 0.371
97 | RRIRQRPPRLPRPRPRPACVPRP | 0.0809
98 | RRIRVRPPRLPRPRPRPKYIPRP | -0.821
99 | RRIRWRPPRLPRPRPRPGRVPRP | 0.37
100 | RRIRPRPPRLPRPRPRPQAQPRP | 0.143

Row | Sequence | shrunken log2 fold change
101 | RRIRRRPPRLPRPRPRPTHTPRP | 0.66
102 | RRIRVRPPRLPRPRPRPEYHPRP | -0.287
103 | RRIRWRPPRLPRPRPRPVRPPRP | 0.305
104 | RRIRQRPPRLPRPRPRPALLPRP | -0.0269
105 | RRIRCRPPRLPRPRPRPHDEPRP | -0.0201
106 | RRIRLRPPRLPRPRPRPPVSPRP | 0.11
107 | RRIRCRPPRLPRPRPRPPYGPRP | -0.266
108 | RRIRRRPPRLPRPRPRPPSDPRP | 0.79
109 | RRIRGRPPRLPRPRPRPYKVPRP | -0.0404
110 | RRIRSRPPRLPRPRPRPYSQPRP | -0.0604
111 | RRIRTRPPRLPRPRPRPCMLPRP | 0.0676
112 | RRIRDRPPRLPRPRPRPHIWPRP | -0.0717
113 | RRIRPRPPRLPRPRPRPNQIPRP | 0.0623
114 | RRIRVRPPRLPRPRPRPIPDPRP | -0.0692
115 | RRIRWRPPRLPRPRPRPQPCPRP | 0.179
116 | RRIRWRPPRLPRPRPRPCVFPRP | 0.309
117 | RRIRARPPRLPRPRPRPTTPPRP | 0.605
118 | RRIRMRPPRLPRPRPRPVEQPRP | 0.0366
119 | RRIRMRPPRLPRPRPRPCGAPRP | 1.15
120 | RRIRMRPPRLPRPRPRPWQVPRP | -0.0506
121 | RRIRGRPPRLPRPRPRPINLPRP | -0.0974
122 | RRIRLRPPRLPRPRPRPFYPPRP | -0.504
123 | RRIRLRPPRLPRPRPRPFLRPRP | -0.429
124 | RRIRLRPPRLPRPRPRPINGPRP | 0.015
125 | RRIRKRPPRLPRPRPRPGCHPRP | 0.0456
